Source: US7026443

biological target: HLA-A*1101 (human); assay: competition with 125I-labelled standard peptide for purified HLA, gel filtration; conditions: not given

| Binder | binding affinity ratio (IC50 of standard peptide / IC50 of test peptide) | relative binding ratio (IC50 of standard peptide / IC50 of test peptide) |
| --- | --- | --- |
| DIILECVYCK (modifications not checked) | 0.021 | – |
| AVCDKCLK (modifications not checked) [HPV16 E6 peptide AVCDKCLK] | 0.011 | – |
| RARQERLQR (modifications not checked) [HPV18 E6 peptide … (position 144, 9 amino acids)] | – | 0.0002 |
| LLIRCINCQK (modifications not checked) | 0.18 | – |
| EVYDFAFR (modifications not checked) [HPV16 E6 peptide EVYDFAFR] | 0.0025 | – |
| KLRHLNEKRR (modifications not checked) [HPV18 E6 peptide … (position 117, 10 amino acids)] | – | 0.0001 |
| IILECVYCK (modifications not checked) | 0.019 | – |
| GTTLEQQYNK (modifications not checked) | 0.07 | – |
| CVYCKQQLLR (modifications not checked) | 0.0005 | – |

same assay, conditions: remark: other sources report otherwise

| Binder | binding affinity ratio (IC50 of standard peptide / IC50 of test peptide) |
| --- | --- |
| AMFQDPQER (modifications not checked) | 0.032 |

biological target: HLA-A*0301 (human); assay: as above; conditions: not given

| Binder | binding affinity ratio (IC50 of standard peptide / IC50 of test peptide) |
| --- | --- |
| DIILECVYCK (modifications not checked) | 0.0065 |
| AVCDKCLK (modifications not checked) [HPV16 E6 peptide AVCDKCLK] | 0.0053 |
| LLIRCINCQK (modifications not checked) | 0.021 |
| EVYDFAFR (modifications not checked) [HPV16 E6 peptide EVYDFAFR] | 0.0004 |
| IILECVYCK (modifications not checked) | 0.0016 |
| GTTLEQQYNK (modifications not checked) | 0.0002 |
| CVYCKQQLLR (modifications not checked) | 0.0001 |

same assay, conditions: remark: other sources report otherwise

| Binder | binding affinity ratio (IC50 of standard peptide / IC50 of test peptide) |
| --- | --- |
| AMFQDPQER (modifications not checked) | 0.017 |

biological target: HLA-A*0301 (human); assay: competition with 125I-labelled standard peptide for purified HLA-A*0301, gel filtration; conditions: not given

| Binder | relative binding ratio (IC50 of standard peptide / IC50 of test peptide) (ratio to standard peptide) | binding affinity ratio (IC50 of standard peptide / IC50 of test peptide) | binding affinity ratio (IC50 of the standard peptide / IC50 of the test peptide) | relative binding ratio (IC50 of standard peptide / IC50 of test peptide) | binding affinity ratio (IC50 of standard peptide / IC50 of test peptide) (ratio relative to standard peptide) |
| --- | --- | --- | --- | --- | --- |
| TGRCMSCCR (modifications not checked) [… (HPV16 E6, position 140)] | 0.0003 | – | – | – | – |
| NIRGRWTGR (modifications not checked) [… (HPV16 E6, position 134)] | 0.0014 | – | – | – | – |
| LCPEEKQRH (modifications not checked) [… (HPV16 E6, position 117)] | 0.0003 | – | – | – | – |
| SCCRSSRTR (modifications not checked) [… (HPV16 E6, position 145)] | 0.0003 | – | – | – | – |
| RLKAICIEK (modifications not checked) [HPV16 E1 109 …] | – | 0.084 | – | – | – |
| LTTNIHPAK (modifications not checked) [… (HPV18 E1, position 571, 9 amino acids)] | – | 0.091 | – | – | – |
| AVCDKCLK (modifications not checked) [HPV16 E6 position 68 peptide AVCDKCLK] | – | – | 0.0053 | – | – |
| SVICFVNSK (modifications not checked) [HPV16 E1 497 …] | – | 0.0005 | – | – | – |
| NSGQKKAKR (modifications not checked) [… (HPV18 E1, position 119, 9 amino acids)] | – | 0.0005 | – | – | – |
| TAQEAKQHR (modifications not checked) [HPV16 E1 72 …] | – | 0.0005 | – | – | – |
| GDTPEWIQR (modifications not checked) [HPV18 E1 341 …] | – | 0.0008 | – | – | – |
| CCRSSRTRR (modifications not checked) [HPV16 E6 position 146 peptide …] | – | – | 0.0003 | – | – |
| CMSCCRSSR (modifications not checked) [HPV16 E6 position 143 peptide …] | – | – | 0.0033 | – | – |
| RFEDPTRRPY (modifications not checked) [HPV18 E6 peptide … (position 3, 10 amino acids)] | – | – | – | 0.0002 | – |
| VCDKCLKFY (modifications not checked) [… (HPV16 E6, position 69)] | 0.0002 | – | – | – | – |
| NIHPAKDNR (modifications not checked) [… (HPV18 E1, position 574, 9 amino acids)] | – | 0.0005 | – | – | – |
| AGHYRGQCH (modifications not checked) [HPV18 E6 peptide … (position 131, 9 amino acids)] | 0.0005 | – | – | – | – |
| ISLNSGQKK (modifications not checked) [HPV18 E1 116 …] | – | 0.0003 | – | – | – |
| AFRDLCIVY (modifications not checked) [HPV16 E6 position 53 peptide …] | – | – | 0.0052 | – | – |
| PLCPEEKQR (modifications not checked) [… (HPV16 E6, position 116)] | 0.0002 | – | – | – | – |
| EGTGCNGWFY (modifications not checked) [HPV31 E1 peptide … (position 10, 10 amino acids)] | – | – | – | – | 0.0005 |
| WTGRCMSCCR (modifications not checked) [… (HPV16 E6, position 139)] | 0.0003 | – | – | – | – |
| EGTGCNGWF (modifications not checked) [HPV31 E1 peptide … (position 10, 9 amino acids)] | – | – | – | – | 0.0008 |
| GVLILALLR (modifications not checked) [HPV18 E1 279 …] | – | 0.0058 | – | – | – |
| DSIPHAACH (modifications not checked) [HPV18 E6 peptide … (position 58, 9 amino acids)] | 0.0005 | – | – | – | – |
| SLFGMSLMK (modifications not checked) [HPV16 E1 484 …] | – | 0.72 | – | – | – |
| ELRHYSDSVY (modifications not checked) [HPV18 E6 peptide … (position 77, 10 amino acids)] | 0.0002 | – | – | – | – |
| AVCDKCLKFY (modifications not checked) | – | – | 0.0052 | – | – |
| AVCDKCLKF (modifications not checked) | – | – | 0.0002 | – | – |

same assay, conditions: remark: other sources report otherwise

| Binder | relative binding ratio (IC50 of standard peptide / IC50 of test peptide) (ratio to standard peptide) | binding affinity ratio (IC50 of the standard peptide / IC50 of the test peptide) |
| --- | --- | --- |
| HLDKKQRFH (modifications not checked) [… (HPV16 E6, position 125)] | 0.0009 | – |
| AMFQDPQER (modifications not checked) [HPV16 E6 position 7 peptide …] | – | 0.017 |
| IVYRDGNPY (modifications not checked) [… (HPV16 E6, position 59)] | 0.15 | – |

same assay, conditions: scale: ratio

| Binder | relative binding ratio (A*0301) |
| --- | --- |
| KLRAGQNHR (modifications not checked) [HPV18 E1 peptide … (position 647, 9 amino acids)] | 0.3 |
| LILALLRYK (modifications not checked) [HPV18 E1 peptide … (position 281, 9 amino acids)] | 0.27 |
| KSFLKGTPK (modifications not checked) [HPV18 E1 peptide … (position 468, 9 amino acids)] | 0.0003 |

biological target: HLA-A*0201 (human); assay: not given; conditions: not given

| Binder | relative binding ratio (IC50 of standard peptide / IC50 of test peptide) | relative binding ratio (IC50 of standard peptide / IC50 of test peptide) (ratio to standard peptide) |
| --- | --- | --- |
| LMKFLQGSVI (modifications not checked) [HPV16 E1 490 …] | 0.0003 | – |
| LLQQYCLYL (modifications not checked) [HPV16 E1 254 …] | 0.1 | – |
| ALYWYKTGI (modifications not checked) [HPV16 E1 … (position 318)] | 0.0019 | – |
| ALKRFLQGI (modifications not checked) [HPV16 E1 … (position 459)] | 0.0062 | – |
| TLLQQYCLYL (modifications not checked) [HPV16 E1 253 …] | – | 0.65 |
| FVNSKSHFWL (modifications not checked) [HPV16 E1 501 peptide …] | 0.0015 | – |
| SLACSWGMV (modifications not checked) | – | 0.082 |
| SLACSWGMVV (modifications not checked) | – | 0.13 |
| CLYLHIQSLA (modifications not checked) | 0.0032 | – |
| QLKCPPLLI (modifications not checked) [HPV16 E1 556 …] | – | 0.0049 |
| FLKSNSQAKI (modifications not checked) [HPV16 E1 392 peptide …] | 0.0011 | – |
| SLMKFLQGSV (modifications not checked) [HPV16 E1 489 …] | – | 0.025 |
| CLYLHIQSL (modifications not checked) | 0.076 | – |
| ELSQMVQWA (modifications not checked) [HPV16 E1 356 peptide …] | 0.0003 | – |
| KLRSTAAAL (modifications not checked) [HPV16 E1 311 …] | 0.0003 | – |
